In patent EP4585618A1 (Jiangsu Hengrui Pharmaceuticals Co., Ltd., dated 2025):
Residue numbers refer to the chain shown, from its start.

B1: chimeric antibody ChP1-B4 (antibody, human IgG4 S228P, kappa, F234A L235A, V domains shown)
VH: QVQLKQSGPGLVQPSQSLSITCTVSSFSLTNYGVHWVRQSPGKGLEWLGVIWTGGSTDYNAAFISRLSIIRDNSKSQVFFKMNSLQADDTAMYYCAITTVVTAMDYWGQGTSVTVSS
VL: DIVMTQSHKFMSTSVGDRVSITCKASQDVNIAVVWYQQKPGQSPKLLIYAASYRYTGVPDRFTGSGSGTDFTFTISSVQAEDLAVYYCQQHYSSPYTFGGGTKLEIKR
notes: Murine variable regions with hIgG4(LALA) and CL constant regions; also called M P1-B4
B2: chimeric antibody ChP2-C4 (antibody, human IgG4 S228P, kappa, F234A L235A, V domains shown)
VH: QVQLKESGPGLVAPSQSLSITCTVSGFSLSTYAIGWVRQPPGKGLEWLGVIWTGGGTSYNSALKSRLSISKDNSKSQVFLKMNSLQTDDTARYYCARGDYGPFAYWGQGTLVTVSS
VL: B1 VL with V15L, T22S, N30S, V34A, P40A, A50S, Y55H, S94T, Y96F, G100S
notes: Murine variable regions with hIgG4(LALA) and CL constant regions; also called M P2-C4
B3: chimeric antibody ChP1-F7 (antibody, human IgG4 S228P, kappa, F234A L235A, V domains shown)
VH: DVQLQESGPGLVKPSQSLSLTCSVTGYSITSGYYWNWIRQFPGNKLEWMGYISYDGNNYYNPSLKNRISVTRDTSKNQFFLKLNSVTSEDTATYYCAREDGSYSDYDGFAYWGQGTLVTVSS
VL: DIQMTQSPASLSVSVGETVTITCRANENIYSNLAWYQQKQGKSPQLLVYAATNLADGVSSRFSGSGSGTQYSLRINSLQSEDFGSYYCQQFWGTPYTFGGGTKLEIKR
notes: Murine variable regions with hIgG4(LALA) and CL constant regions; also called M P1-F7
B4: chimeric antibody ChP2-E3 (antibody, human IgG4 S228P, kappa, F234A L235A, V domains shown)
VH: EVQLQQSGPELVKPGASVKISCKASGYTFTDYYMNWVKQSHGKSLEWIGDINPNNGGTSYNQKFKGKATLTVDKSSSTAYMELRSLTSEDSTVYYCARGGVTTVVATYWYFDVWGTGTTVTVSS
VL: B3 VL with N26S, L54V, S59P, S65G, R74K, G93D, Y96F, G100S
notes: Murine variable regions with hIgG4(LALA) and CL constant regions; also called M P2-E3
B5: chimeric antibody ChP2-F10 (antibody, human IgG4 S228P, kappa, F234A L235A, V domains shown)
VH: DVQLQESGPGLVKPSQSLSLTCSVTGYSIASGYYWNWIRQFPGNKLEWMGYITYDGSNNYNPSLKNRISITRDTSKNQFFLKLNSVTTEDTATYYCAREYSYGSTLSWFAYWGQGTLVTVSS
VL: B3 VL with V13I, N26S, S59P, R74K, Q90H, G93D
notes: Murine variable regions with hIgG4(LALA) and CL constant regions; also called M P2-F10
B6: chimeric antibody ChP2-G9 (antibody, human IgG4 S228P, kappa, F234A L235A, V domains shown)
VH: DVQLQESGPGLVKPSQSLSLACSVTGSSITSGYYWNWIRQFPGNKLEWMGYLSYDGSNNYNPSLKNRISITRDTSKSQFFLKLNSVTPEDTATYYCAREGAHYSGTLSWFAYWGQGTLVTVSS
VL: B3 VL with N26S, S59P, R74K, Q90H, G93D
notes: Murine variable regions with hIgG4(LALA) and CL constant regions; also called M P2-G9
B7: chimeric antibody ChP1-G7 (antibody, human IgG4 S228P, kappa, F234A L235A, V domains shown)
VH: DVQLQESGPGLVKPSQSLSLTCSVTGYSITSGYYWNWIRQFPENKLEWMGYISYDGGNNYNPFLKNRISITRDTSKNQFFLNLNSVTIEDTATYYCAREGGSSWEYYGMDYWGQGTSVTVSS
VL: B3 VL with N26S, S31R, K42H, V48L, S59P, R74K, T94S
notes: Murine variable regions with hIgG4(LALA) and CL constant regions; also called M P1-G7
B8: chimeric antibody ChP2-C7 (antibody, human IgG4 S228P, kappa, F234A L235A, V domains shown)
VH: EVQLQQSGPELVKPGTSVKMSCKASGYTFTDYSMHWVRQSHGKSLEWIGYFNPNNGDTIYNQKFKGKATLTVNKSSSTAYMELRSLTSDDSAVYYCAREDSVSTNAWDGALDYWGQGTSVTVSS
VL: B3 VL with A25T, N26S, A50G, S59P, R74K, Q90H, G93D, T94I, Y96W, K103T
notes: Murine variable regions with hIgG4(LALA) and CL constant regions; also called M P2-C7
B9: chimeric antibody ChP2-C6 (antibody, human IgG4 S228P, kappa, F234A L235A, V domains shown)
VH: EVQLQQSGPELVKPGASVKMSCEASGYTFTDYYIHWVKQSHGESLEWIGYIYPDNGYNGYNQKFKGKATLTVDKSSNTAYMELRSLTSEDSAVYFCTRRGDYSGVHFDYWGQGTALTVSS
VL: DIVLTQSPASLAVSLGQRATISCRASESVNNYGVGFLHWYQQKPGQPPKLLIYRASTLESGIPARFSGSGSRTDFTLTINPVETDDVATYYCQHSYKDPPWTFGGGTKLEIKR
notes: Murine variable regions with hIgG4(LALA) and CL constant regions; also called M P2-C6
B10: chimeric antibody ChP1-B9 (antibody, human IgG4 S228P, kappa, F234A L235A, V domains shown)
VH: QVQLKQSGPGLVQPSQSLSITCTVSGFSLTSYGVHWVRQSPGKGLEWLGVIWSGGNTDYNAAFMSRLRINKDNSKSQVFFKMNSLQGSDTAIYYCATPYDVVPFAYWGQGTLVTVSS
VL: B1 VL with V34A, Q42L, A50S, D60G, Q79K, S94I, Y96F, G100A
notes: Murine variable regions with hIgG4(LALA) and CL constant regions; also called M P1-B9
B11: chimeric antibody ChP1-D10 (antibody, human IgG4 S228P, kappa, F234A L235A, V domains shown)
VH: QVQLKQSGPGLVQPSQSLSITCTVSGFSLTTYGVHWVRQSPGKGLEWLGVIWSGGNTDSNAAFISRLSISKDNSKSQVFFKMNNLQADDTAIYYCARYSYAMDYWGQGTSVTVSS
VL: DIVMTQSHKFMSTSVGDRVSITCKASQDVSNGVAWYQQKPGQSPKVLIYAASYRYTGVPDRFTGSGSGTDFTFTIGSVQAEDLALYYCQQHYSTPFTFGSGTMLEIKR
notes: Murine variable regions with hIgG4(LALA) and CL constant regions; also called M P1-D10

Biological target: T1, His-tagged ILT4 protein extracellular domain: ILT4-His (human, UniProt Q8N423 22-460)
T1 construct: Expressed in 293 cells; also called human ILT4-His protein
T1 sequence (Q8N423 other isoform, or with tags, fused parts or gaps limits assumed): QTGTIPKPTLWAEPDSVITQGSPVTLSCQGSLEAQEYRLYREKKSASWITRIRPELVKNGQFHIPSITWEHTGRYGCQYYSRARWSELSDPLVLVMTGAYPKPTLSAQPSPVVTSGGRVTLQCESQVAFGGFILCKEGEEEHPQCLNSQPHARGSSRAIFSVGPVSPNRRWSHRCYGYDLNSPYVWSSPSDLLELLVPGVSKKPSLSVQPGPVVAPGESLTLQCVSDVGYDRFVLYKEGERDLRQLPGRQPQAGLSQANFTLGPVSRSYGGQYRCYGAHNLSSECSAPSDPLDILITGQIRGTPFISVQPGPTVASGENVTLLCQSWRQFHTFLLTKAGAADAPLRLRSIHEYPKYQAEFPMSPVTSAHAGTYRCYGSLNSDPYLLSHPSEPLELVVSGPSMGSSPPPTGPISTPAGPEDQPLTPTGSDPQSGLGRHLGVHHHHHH
Experiment: screening of chimeric antibodies (ILT4 protein binding, cell binding, ILT4/HLA-G blocking)

Row | Binder | binding result
1 | B1 | binds
2 | B2 | binds
3 | B3 | binds
4 | B4 | binds
5 | B5 | binds
6 | B6 | binds
7 | B7 | binds
8 | B8 | binds
9 | B9 | binds
10 | B10 | binds
11 | B11 | binds
